Source: patent US20230312722A1 (NONA BIOSCIENCES SUZHOU, published 2023)
Positions count from the first letter of the chain named. Names may count otherwise. One block for each binder: values may come before it.

What was measured:
[1] = target: T1, human B7H4 on the cell surface (human, UniProt Q7Z7D3 25-282); experiment: FACS on MDA-MB-468 cells; in the drawn table the number stands under the head 'Maximum MFI' (the two heads are interchanged); the head says nM, the axis of the curve µg/mL
T1 construct: whole, on cells; also called CHOK1/hu B7H4; B7H4 on SK-BR-3
T1 sequence (looked up): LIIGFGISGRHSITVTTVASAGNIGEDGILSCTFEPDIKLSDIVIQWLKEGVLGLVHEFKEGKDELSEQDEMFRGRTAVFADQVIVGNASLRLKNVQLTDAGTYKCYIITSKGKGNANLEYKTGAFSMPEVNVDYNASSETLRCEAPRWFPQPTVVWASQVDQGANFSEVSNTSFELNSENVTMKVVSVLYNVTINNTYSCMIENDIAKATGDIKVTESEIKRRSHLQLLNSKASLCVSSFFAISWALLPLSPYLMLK

[2] = target: T1, human B7H4 on the cell surface; experiment: FACS on MDA-MB-468 cells; in the drawn table the number stands under the head 'EC50 (nM)' (the two heads are interchanged)
[3] = target: T1, human B7H4 on the cell surface; experiment: FACS on MDA-MB-468 cells (head of the figure); the same number stands in Table 2-3 of the text under the head SK-BR-3
[4] = target: T1, human B7H4 on the cell surface; experiment: FACS on MDA-MB-468 cells
[5] = target: T1, human B7H4 on the cell surface; experiment: FACS, tumor cells (table head: SK-BR-3)
Experimental: (§1) This example is intended to investigate the in vitro binding activity of anti-human B7H4 H2L2 monoclonal antibody to human/cynomolgus monkey/mouse B7H4. Antibody binding experiments at the cellular level were performed using CHOK1 cell line overexpressing human B7H4 (CHOK1/hu B7H4, Harbour BioMed), CHOK1 cell line overexpressing cynomolgus monkey B7H4 (CHOK1/cyno B7H4, Harbour BioMed), CHOK1 cell line overexpressing mouse B7H4 (CHOK1/m B7H4, Harbour BioMed) and SK-BR-3 cell line (ATCC® HTB-30) highly expressing human B7H4. Briefly, CHOK1/hu B7H4 cells, CHOK1/cyno B7H4 cells, CHOK1/m B7H4 cells or SK-BR-3 cells were digested and resuspended with PBS containing 2% BSA. The cell density was adjusted to 1×10⁶ cells/mL. The cells were seeded in a 96-well V-bottom plate (Corning, #3894) at 100 μL/well, followed by the addition of test antibodies diluted in a 3-fold concentration gradient of 2 times the final concentration, each at 100 μL/well. The cells were incubated at 4° C. for 2 h away from light. Thereafter, the cells in each well were rinsed twice with 100 μL of pre-cooled PBS containing 2% BSA, and centrifuged at 500 g at 4° C. for 5 min, and then the supernatant was discarded. […] Finally, the cells in each well were resuspended with 200 μL of pre-cooled PBS containing 2% BSA, and the fluorescence signal values were read using an ACEA Novocyte3000 flow cytometer.

[6] = target: T2, human B7-H4 (recombinant protein of the BLI affinity assay, Example 7.2) (human, UniProt Q7Z7D3 29-258, limits assumed); experiment: BLI (Octet Red 96e), antibody captured on AHC sensor, human B7-H4 in solution, 1:1 global fit
T2 construct: also called human B7H4 protein
T2 sequence (looked up): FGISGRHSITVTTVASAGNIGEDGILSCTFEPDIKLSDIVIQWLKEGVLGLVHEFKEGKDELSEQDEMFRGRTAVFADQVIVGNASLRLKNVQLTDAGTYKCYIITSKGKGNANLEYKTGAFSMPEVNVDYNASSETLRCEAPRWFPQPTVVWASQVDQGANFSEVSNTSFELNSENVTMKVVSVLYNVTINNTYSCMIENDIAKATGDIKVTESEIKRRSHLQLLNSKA
Experimental: When the affinity of the antigen for the antibody was determined, the rotation speed of the sensor was set at 1000 rpm/min. The AHC sensors (Fortebio, #18-5060) placed in a row were equilibrated for 10 minutes in a test buffer before the AHC sensors were used to capture the B7-H4 antibodies at a capture height of 0.7 nm; the AHC sensors, after equilibrated in the buffer for 120 s, bound to 2-fold serially diluted human B7-H4 (concentrations were 50 nM-3.125 nM and 0 nM) for 180 s, followed by dissociation for 300 s. Finally, the AHC sensor was immersed in a 10 mM glycine-hydrochloric acid solution at pH 1.5 for regeneration to elute the proteins bound to the sensor.
When data analysis was performed using Octet Data Analysis software (Fortebio, version 11.0), 0 nM was taken as a reference well, and reference subtraction was performed; the “1:1 Global fitting” method was selected to fit the data, and the kinetics parameters of the binding of antigens to antigen-binding proteins were calculated, with kₒₙ (1/Ms) values, kdis (1/s) values and KD(M) values obtained (see Table 7-2).

[7] = target: T3, cynomolgus monkey B7H4 on the cell surface (cynomolgus monkey, UniProt A0A2K5U6P5 25-282); experiment: FACS, CHOK1/cyno B7H4 cells
T3 construct: whole, on cells; also called CHOK1/cyno B7H4
T3 sequence: T1 sequence (looked up) with L53I, F242L, S252A
Experimental: (§2) This example is intended to investigate the in vitro binding activity of anti-human B7H4 H2L2 monoclonal antibody to human/cynomolgus monkey/mouse B7H4. Antibody binding experiments at the cellular level were performed using CHOK1 cell line overexpressing human B7H4 (CHOK1/hu B7H4, Harbour BioMed), CHOK1 cell line overexpressing cynomolgus monkey B7H4 (CHOK1/cyno B7H4, Harbour BioMed), CHOK1 cell line overexpressing mouse B7H4 (CHOK1/m B7H4, Harbour BioMed) and SK-BR-3 cell line (ATCC® HTB-30) highly expressing human B7H4. Briefly, CHOK1/hu B7H4 cells, CHOK1/cyno B7H4 cells, CHOK1/m B7H4 cells or SK-BR-3 cells were digested and resuspended with PBS containing 2% BSA. The cell density was adjusted to 1×10⁶ cells/mL. The cells were seeded in a 96-well V-bottom plate (Corning, #3894) at 100 μL/well, followed by the addition of test antibodies diluted in a 3-fold concentration gradient of 2 times the final concentration, each at 100 μL/well. The cells were incubated at 4° C. for 2 h away from light. Thereafter, the cells in each well were rinsed twice with 100 μL of pre-cooled PBS containing 2% BSA, and centrifuged at 500 g at 4° C. for 5 min, and then the supernatant was discarded. Then 100 μL of a fluorescent secondary antibody (Alexa Fluor 488-conjugated AffiniPure Goat Anti-Human IgG, Fcγ Fragment Specific, Jackson, #109-545-098, 1:500 diluted) was added to each well. The plate was incubated away from light at 4° C. for 1 h. The cells in each well were washed twice with 100 μL of pre-cooled PBS containing 2% BSA, and centrifuged at 500 g at 4° C. for 5 minutes, and then the supernatant was discarded. Finally, the cells in each well were resuspended with 200 μL of pre-cooled PBS containing 2% BSA, and the fluorescence signal values were read using an ACEA Novocyte3000 flow cytometer.

[8] = target: T1, human B7H4 on the cell surface; experiment: FACS, CHOK1/hu B7H4 cells
Experimental: as §2

[9] = target: T4, mouse B7H4 on the cell surface (mouse, UniProt Q7TSP5 25-257); experiment: FACS, CHOK1/m B7H4 cells (FIG. 5)
T4 construct: whole, on cells; also called CHOK1/m B7H4
T4 sequence (looked up): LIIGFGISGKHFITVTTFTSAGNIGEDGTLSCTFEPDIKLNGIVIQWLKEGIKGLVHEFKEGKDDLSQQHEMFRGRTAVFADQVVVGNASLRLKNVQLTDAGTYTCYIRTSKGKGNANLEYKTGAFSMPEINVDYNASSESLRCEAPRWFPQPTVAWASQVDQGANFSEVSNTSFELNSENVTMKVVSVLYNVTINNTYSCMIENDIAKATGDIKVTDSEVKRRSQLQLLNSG
Experimental: as §1

[10] = target: T1, human B7H4 on the cell surface; experiment: FACS, SK-BR-3 cells
Experimental: as §2

EC50 [1]: 0.0508 nM | Maximum MFI [2]: 204000 | EC50 [3]: 0.434 nM | EC50 (read off the curve) [4]: ~0.05 µg/mL | EC50 [5]: 0.434 nM | Kd [6]: 1.39 nM | koff [6]: 0.000394 s⁻¹ | kon [6]: 283000 M⁻¹ s⁻¹
B1: PR003369 (antibody, human IgG1, kappa, V domains shown)
VH: QVQLVESGGGVVQPGRSLRLSCAASGFTFRSFGMHWVRQAPGKGLEWVAVISYDASNEYYADSVKGRFIISRDNSKDTLYLQMNSLRAGDTAVYYCAKGGALRWYFAYWGQGTLVTVSS
VL: EIVMTQSPATLSVSPGERATLSCRASQSISSNLGWYQQKPGQAPRLLIYGASTRATGIPARFSGSGSGTEFTLTISSLQSEDFAVYYCQQYRSWPPLTFGGGTKVEIKR
notes: L: N92R; Fc S239D, I332E), human IgG1

EC50 [7]: 24.8 nM | Maximum MFI [7]: 677000 MFI | EC50 [8]: 20 nM | Maximum MFI [8]: 1.15e+06 MFI | binding result [9]: no binding | EC50 [10]: 85.6 nM | Maximum MFI [10]: 82800 MFI
B2: PR002038 (antibody, human IgG1, kappa, V domains shown)
VH: QVQLVQSGAEVKKPGSSMRVSCKASEDTFSSYAISWVRQAPGQGLEWMGGTAPIFGTTNYAQKFQGRVTITADKSTSTAYMELSSLRSEDTAVYYCARGGPYFDYWGQGTLVTVSS
VL: DIQLTQSPATLSVSPGERATLSCRASQSVSSNLAWYQQKPGQAPRLLIYGDYIRATGIPARFSGSGSGTEFTLTISSLQSEDIATYYCQQYVDLPITFGQGTRLEIKR
notes: Initial antibody, human IgG1; also called 1025_B-2A1
